Results: PMC10350915, “Development of a New Class of CXCR4-Targeting Radioligands Based on the Endogenous Antagonist EPI-X4 for Oncological Applications” (Journal of Medicinal Chemistry, 2023)
Square brackets hold non-standard residues; d marks the D form. Peptide text beside a SMILES is read from it. * marks the point of attachment. DOTA = O=C(O)CN1CCN(CC(=O)O)CCN(CC(=O)*)CCN(CC(=O)O)CC1

What was measured:
[1] = Shelf-life of 177Lu-labeled ligands at room temperature (radio-HPLC); assay type: physicochemical
Description: The shelf-life of each ^177Lu-labeled ligand was monitored at room temperature up to 24 h after radiolabeling.
The shelf-lives of ^177Lu-labeled ligands were assessed at room temperature (RT) in the buffer used for labeling, as described above. For the analysis, 5 μL was withdrawn at desired time points (0, 1, 2, 4, and 24 h) from the stock solution and mixed with 50 μL of the Ca-DTPA solution. 20 μL of this mixture was withdrawn and injected in RP-HPLC.

[2] = assay type: in vitro ADME; conditions: human, plasma, plasma protein binding (PPB)
Description: Figure 3 Stability of the ^177Lu ligands in human plasma at 37 °C, expressed as % of intact radioligand over time, assessed by radio-HPLC. The % of plasma protein binding (PPB) after 60 min incubation is provided in parenthesis and it is expressed as the % of radioligand in the protein fraction (pellet) versus the total activity in the plasma. TEXT PRINTED IN THE PICTURE: ^177Lu-1: PPB: 35% | ^177Lu-2: PPB: 22% | ^177Lu-5: PPB: 42% | ^177Lu-6: PPB: 38% | ^177Lu-7: PPB: 39% | ^177Lu-9: PPB: 37%
For the determination of plasma protein binding (PPB), 100 μL from the plasma incubated with the ^177Lu ligand was removed and measured in a γ-counter (total radioactivity). Protein precipitation and separation followed, as described above. The supernatant and the protein pellet were then measured in a γ-counter. The percentage of plasma protein binding was calculated as the ratio between the protein-bound radioactivity and the total radioactivity in the plasma.

Ghost-CXCR4 cells = assay: Cellular uptake and distribution in Ghost-CXCR4 cells; assay type: cell-based, human; conditions: 37 °C, 60 min
Description: Figure 4 In vitro assessment in Ghost-CXCR4 cells at 37 °C. […] Each experiment was performed in triplicate. Results are means ± SD [% of applied activity] from a minimum of two separate experiments. […] Cellular uptake was interrupted at 15, 30, and 60 min by removing the medium and washing twice with ice-cold PBS. The cell surface-bound radioligand was obtained by washing cells twice with ice-cold glycine buffer (pH 2.8) followed by a collection of the internalized fraction after treating the cells with 1 M sodium hydroxide (NaOH). The activity in each fraction was measured in a γ-counter. […] The results were expressed as a percentage of the applied radioactivity after subtracting the nonspecific uptake.

Jurkat xenografts = assay type: in vivo, mouse; conditions: 1 h p.i., SPECT/CT or PET/CT
Description: The ability of the ^177Lu ligands to target CXCR4 in vivo was assessed by SPECT/CT imaging in Jurkat xenografts. […] 1 h after injection, the remaining amount of radioligand in the body (and vice versa, the washout) was quantified by measuring the total body activity (mouse) in a dose calibrator. The % of the radioligand remaining in the body after 1 h is reported in Figure 6A as % of the remaining activity in reference to the injected activity (100%).
Figure 6 SPECT/CT images as maximum intensity projections (MIPs) of Jurkat tumor-bearing mice at 1 h p.i. of ^177Lu-labeled ligands (200 pmol, ∼15 MBq). […] (B) Same SPECT/CT images of ^177Lu-1, ^177Lu-2, ^177Lu-5, and ^177Lu-6, adapted in a lower scale. T: tumor, L: liver, and K: kidneys. […] TEXT PRINTED IN THE PICTURE: (A) ^177Lu-1: Remaining Activity (% injected): 6 % | (A) ^177Lu-2: Remaining Activity (% injected): 7 % | (A) ^177Lu-5: Remaining Activity (% injected): 7 % | (A) ^177Lu-6: Remaining Activity (% injected): 8 % | (A) ^177Lu-7: Remaining Activity (% injected): 55 % | (A) ^177Lu-9: Remaining Activity (% injected): 94 %
The experimental protocol involving animals was approved by the Veterinary Office (Department of Health) of the Cantonal Basel-Stadt (Approval No. 30515) in accordance with the Swiss regulations for animal treatment. Female athymic nude-Foxn1^nu/Foxn1^+ mice (Envigo, The Netherlands), 4–6 weeks old, were injected subcutaneously with 10^7 Jurkat cells in a 200 μL (1:1) mixture of PBS and Matrigel (CorningMatrigelMembrane matrix, Fischer Scientific, Germany) on the right shoulder. The tumors were allowed to grow for 3–4 weeks before commencement of the experiments.
Nude mice bearing Jurkat xenografts were intravenously injected via the tail vein with ∼15 MBq (200 pmol) of the ^177Lu ligands and 8 MBq (200 pmol) of ^68Ga-7 were euthanized 1 h post injection (p.i.). The radioactivity in the syringe before and after injection was measured followed by measuring the amount of radioactivity remaining in the sacrificed mice. […]

CC[C@@H](C)[C@@H](N)C(=O)N[C@@H](CC(C)C)C(=O)N[C@@H](CCCNC(=N)N)C(=O)N[C@@H](Cc1c[nH]c2ccccc12)C(=O)N[C@@H](CO)C(=O)N[C@@H](CCCNC(=N)N)C(=O)N[C@@H](CCCCN)C(=O)N[C@@H](CCCCNC(=O)CN1CCN(CC(=O)O)CCN(CC(=O)O)CCN(CC(=O)O)CC1)C(N)=O [^177Lu-7, metal not drawn] (H-[dI]LRWSRKK(DOTA)-NH2; N-terminus assumed)
radiochemical purity (%) ([1]; 0 h after radiolabeling): 98 ± 1% | radiochemical purity (%) ([1]; 1 h after radiolabeling): 95 ± 0% | radiochemical purity (%) ([1]; 2 h after radiolabeling): 94 ± 0% | radiochemical purity (%) ([1]; 4 h after radiolabeling): 88 ± 3% | fraction unbound at 60 min [2]: 0.61 | cellular uptake (% of the applied activity) (Ghost-CXCR4 cells): 7.90 ± 1.48% | visualization of CXCR4-expressing tumor xenograft by imaging (Jurkat xenografts): accumulated and visualized the CXCR4-expressing tumor xenograft
